From the DeepSol protein solubility set

Assay: soluble on expression in E. coli; label from the status in PepcDB or PDB records
In the case of “MSLTLDELDSHLFKCADIIRDAVDPTDYKEYILPLVFYKAISDEYEQEREEIVEEYGEDFADNANLYDVPIVPEGHRWNDLRQESENVDEAINNAFTEFTQANPDLSGIFNANFMEAGGLTDDRLIKLVEHLSTYDLDRDSVPPDMLGEAYMDLVRHFAEEEGKSGGQFFTPPHIVQLCVRLVDDFADGMTFHDPTVGSGGMLTEAAKYYREAQGGDPSKLTFTGQEINPDIAAIARMNLSLHTLNGEIERGDSLASPGFTDGDDLERFDRVLANFPFSADWAKDDLQDDQYGRFDWHTKLPRADRGDYAFIMHIAEQLKEPDCGDESGGKAAIVIPHGVLFRKHEQRYRQPMLENDLVEAIVGLPENLFQNNSIPSAILVLNTDKPADREGEVQFIHAADEAFYEELSNQNELTDDGLDHIVENFDDWTTEERVSRTVGIEEIEENDFNLNIALYVDTTEPEEDIDVNEELAELRELQAEREEIESRMTEHMEALQYE”, the “soluble on expression in E. coli” value is reported as “soluble”.
With “MSLTLLKGRRKVDTIKVGILGYGLSGSVFHGPLLDVLDEYQISKIMTSRTEEVKRDFPDAEVVHELEEITNDPAIELVIVTTPSGLHYEHTMACIQAGKHVVMEKPMTATAEEGETLKRAADEKGVLLSVYHNRRWDNDFLTIKKLISEGSLEDINTYQVSYNRYRPEVQARWREKEGTATGTLYDLGSHIIDQTLHLFGMPKAVTANVMAQRENAETVDYFHLTLDYGKLQAILYGGSIVPANGPRYQIHGKDSSFIKYGIDGQEDALRAGRKPEDDSWGADVPEFYGKLTTIRGSDKKTETIPSVNGSYLTYYRKIAESIREGAALPVTAEEGINVIRIIEAAMESSKEKRTIMLEHEGHHHHHH” the “soluble on expression in E. coli” value was “soluble”.
With “MSLTMREVAKAAGVSIKTVSNVVNDYEFVSQATRDKVNKAIAELGYTVNVSARNLRRGQTGIIGLAIPDLQMPYFAQLSSLVIEEAKKVGLRVIVEPTQYSRDGELEALHGSQQMMIDGLIYSPLELGQDDVEQLKVDYPLVLVGERIFTDQVDHIATENVEGAKRATQYLLTTGCRRVAVVGVHPGEKVGSAALRYQGYLEALEEAGVEFDDRLVVESGMWHRSDGVRAMNALLDSGVEVDGVVALNDMLASGVMHAIQMHGLHIPDDISVVGFDNSDDSQYLSPALTSIAPGLEAVARLSVKVLKERIDGRDPNADRPGEKVFRKVASSLVVRQSTKLPIDSLVLEGHHHHHH” the “soluble on expression in E. coli” value was “not soluble”.
With “MSLTNLPEDRTGEEIRDAIKIDGEAVRGHLDELVRSTVEETLNQMLDAEADQICKAKRYERSPDRVDSRAGSYSRKLQTKAGEVSLKVPQLRSLPLETQIIERYKRRESSVEEALVEMYLAGVSVRRVEDITEALWGTRVSSSTVSELNQKIYERIDVWRNRPLEGEHPYVMLDGIWLKRSWGGEVKNIAVLVAVGVRSDGHREILSVAEGTKEDSESWRTFLRHLKERGLQGVRLITSDKCLGLVEALGEFFPEAAWQRCIVHFYRNVLKDVPRSKSRDVAAMLKAVHAQEDRTAATEKAEQVAEKLASLRLGNAAKCFRAGVQETLAYMNFPREHWTRLRSNNMLERIMKEIRRRTRVVGAFPDGQSALMLVAARLRHIAGTHWGTRRYLDMDRLHEPEEREDHEGHHHHHH” the “soluble on expression in E. coli” value was “soluble”.
In the case of “MSLTNQAYPMALVSQDSLDSYIRSVNGYPMLSADEERELAERLHYKGDIDAAKGLILSHLRFVVHVARGYSGYGLPMADLVQEGNIGLMKAVKRFNPEMGVRLVSFAVHWIKAEIHEYVLRNWRIVKIATTKAQRKLFFNLRKSKKRLGWFNNGEVETVARELGVEPAEVREMESRLAAQDAAFEMSAEDDENGMAYTAPVLYLEDKHSDLADNLEAENWEAHTTQRLSMALASLDERSQHIVRARWLDDDNKTTLQDLAEMYGVSAERIRQLEKNAMRKLKEAVGEEGHHHHHH”, the “soluble on expression in E. coli” value is reported as “soluble”.
For “MSLTPSIISIQSQVVHGHVGNSAAVLPMQGHGVTVAAVPTTLLSNHPGFETVRGRVLESELVGDLLRGVEERGLIETSGYIVSGYLGSRANGEVVASFVKRARRLNPDITYICDPVMGDAALGVFVADQVVSCLCDDLIPLADLLTPNQFEVGLIAGRPLSTWRELEAAVLKIRAPRGARLVVTGCALSDTPDGALENIVFDDKTHTRLTSPRLPLAPAGTGDLYTGLLTAKLARGHTLVEAACHAATSVLDVLQQTMAAGEHEMQLARAITTLGPACKETSEGHHHHHH”, the “soluble on expression in E. coli” value was “soluble”.
With “MSLTPTELNLKAKALLETHFDDIVLSGEISKITLHGSGHWYFDLKDERSSIACAMFKGANLKVGFKPAVGDFLELCGSVSLYPESGRYQFIATSMKKAGFGDLEAQFLALKERLQKEGLFDPRFKKSLPKFPKKVGIITSKTSAALQDMLKLIHQKEYFLAKIYIFDALTQGNNAPFSLIQALKKADDMDLDVLIIARGGGSREDLFCFNDENLAREIFKAKTPIISAIGHEIDYVISDFVADFRAPTPSAAIDTLFYSKLDIEQSLDLMEEKLMQLWNYKIQNYENLLLNLSKFFKFNSLPKIIDEKIKQSHNIEKQLNHLLANQMRYNELKLDKLQNAYLQHENFFNKSKKFICIRKNGKIANLEDLKSDDIVILSSQTSQKEAKILEGHHHHHH” the “soluble on expression in E. coli” value was “not soluble”.
With “MSLTQKPLTVVVGPPSAGKSTWVKAAAKASDLVIDLDILAPTVIGKPMWIADSRERSLVIRERNSLVAEYMRGKTAHPHCFLIDTAGSFKRRKFWLDRGADVVLLDTDKDICRARIRQCSARPESTRAGRLAAVDRWEEGHHHHHH” the “soluble on expression in E. coli” value was “soluble”.
For “MSLTTELKTEALPTRTQVDPKHCWDTTLMYANREEWKKDFDLCSSGKDRSPIWPEFSPSHYQIDNPESLLELLSKKFSVERKLDQLYIYAHLIHDQDITNPEGESDYQSIVYLYTLFSQEISWIQPALIALSEEKVAALLSSSVLAPYRFYLEKIFRLSPHTGTANEEKILASSFAALNVSNKAFSSLSDAEIPFGIAKDSNGEEHPLSHALASLYMQSPDQELRRTAYLAQFQRYYDYRNTFANLLNGKVQAHLFEAKARNYPSCLEASLFQHNIPTTVYINLINETKKHTSLINRYFNLKKEALNLKEFHFYDVYAPISQTTSKNYSYEEGVDLVCKSLLPLGTHYVEILRNGLLSNRWVDRYENKHKRSGAYSSGCYDSAPYILLNYTNTLYDVSVIAHEAGHSMHSYFSREAQPYHDAQYPLFLAEIASTFNEMLLMEALSKSDQSKEDKIVIITKTLDTIFATLFRQTFFAAFEYEIHSAAEQGTPLTEEFLSATYGNLQKEFYGGVVTSDSLSALEWARIPHFYYNFYVYQYATGIIAALSFAEKILTQEPGALELYLKFLKSGRSDFPLNILKKSGLDMTTSAPLDKAFAFITKKIDLLSSLLSEDEGHHHHHH”, the “soluble on expression in E. coli” value was “soluble”.
With “MSLTTELVDWTHEQKCRKAVAALEKNGFTAVYCPSGREAFDYILTEAVDARSIGFGGSLSVVDLQVIDRLREMDKELLIHGLPGLSLEERVAIMRRQLTCDLFLTGTNALTLSGWLVNIDATGNRVASMFFGPRTVIVVAGRNKIVDGGVTEAIARVKEWASPPNARRLSYKTPCATTGFCSDCNSPDRICRITTVIDRNPRLTDLRVLVVNEDMGLLEHHHHHH” the “soluble on expression in E. coli” value was “soluble”.
For “MSLTTMKEIAEQTGVSISTVSLVLNGRDEGRVNPALAKLVRNKATELGYKINPLARSLRTNKTRILGFISEEVATTPYAGGIILGAQDAASAYGYMLFTVSTDGKASEENEIATLKRYGVDGFFYSKMSNRIAHVPESLSDYPVVMVDATDYENKVPSVEPDEFMIGYDATIRLLQADCKRIAYVGCAENMIAQDGRLAGYCTALQEAGRAFNPSLVCNVMNDGPALRAVNKLFDDEHPDGFFCFNDARAWYVYECAARRGLTVGKDISVVGVDNHRVFAETLEPQLTTVELPHYEMGYWSACKLISMIEGKDVDTSEGHHHHHH”, the “soluble on expression in E. coli” value was “not soluble”.
In the case of “MSLTTSFQDTEFFENQIFNTGKYNCLILRTAMNVLREHANLDIVYGGRAIRQLIYETVDTISAMEGVDKKATWLKLISLCDQFRKTGQESLSLAEYTEDFNFESIALQVDAFSLFAKPHDFQVFSVFLEDSEKGKLATILSSLTQKFSNKSRFKICQALLERGQISSSSATELYDEFIQSKVDDTEAIDFQNRLAEVSLKTIREMIFSKTREEDTEMRTASDSSVSPFLRLNAISSLRDIKDAHEKILIDMAIIFLLFDPREETVELLNAIVKRLSSYAMLEHIFCTCFNDQGTELESHSLSKPENSVFWISVADKFPALKQLINGGDMAGAFDYLVEKLDKSYDEVILNVVIELLNRGNGEVVRKNYIKSLNPNRLIDRILIGLVYLLTDDVDNFRATFEDFAETLLLQNEQNKTDAPLEDRLNYKKEVSDLLNAVFASSSNPAAQKSNYYHTLFALAKSQAKVLRHRSHENIISPNSTSSAEAKFIKAALLFEQKAISYLKQVVKSEHLKFNLDDAYLNVYELGLYLQDYKSVYESLQNLSPVADEYDYNYLMKRYLSRLISQGSISTIFPPNDNKLYRDNYLLIDSVLLDLANNELVLASALTFYEYLYSWRLLGSATKVDPTELTDKRGAAEALYMFITRFKLEQPDLLSSTSEQSEDIKQYKLKVLELYLMILNCLQSFESIEDQWLVKSQTNDSLAVVKLNEITLEYYNWLKEIKDEEGHHHHHH”, the “soluble on expression in E. coli” value is reported as “not soluble”.
For “MSLTVKMGFIGFGKSANRYHLPYVMIRETLEVKTIFDLHVNEKAAAPFKEKGVNFTADLNELLTDPEIELITICTPAHTHYDLAKQAILAGKSVIVEKPFCDTLEHAEELFALGQEKGVVVMPYQNRRFDGDYLAMKQVVEQGFLGEINEVETHIDYYRPGSITEQGPKENGSFYGLGIHLMDRMIALFGRPDQVTYDIRNNEVSEAVDNYFDVDLHYGSKLKVKVKTNHSVASPYPRFIVHGSNGSFIKYGEDQQENDLKAGIMPDAPGFGEDSPMYYGEVTYRNGNGDWIKKQIKTPVGDYGRYYDAVYETLKNGAPQLVTKEQALTNIEILEAGFLNPSPSVYHLKENEGHHHHHH”, the “soluble on expression in E. coli” value was “soluble”.
In the case of “MSLTWYHELGIKYPLFQGGMAWASNAELVAAVSNNGALGIIGSGGRTANELRRMIRKTKTLTSQPFGVNLMLLDKNIKQLLEVICEEKISVVTTGAGSPKEIIDTIIANNIKLFPVVPNKEIALKMLNLPISGIIVEGNEAGGHVGSQNLASLLKEIAPICPLPLIAAGGIYDHHTASLANILGANGVQVGTAFLLAKECQISPIYQELICKGEENGTSLISDKNGHLTRLLNISSEYPLNKSLKAAVEKGDLINGAFMAGSSSAYLEKIEPVENIIQRIMKKEGHHHHHH”, the “soluble on expression in E. coli” value is reported as “not soluble”.
In the case of “MSLVERALQVGSPAPDFALPNAVGREVRLSSVTARGPSVITFYRGAWCPYCSLQLRAYQKILPQLKLLGGELLAISPQTPDKTQATLLKNFLEYEVLSDVGNRVAKRFGLVYPVGAEVRRIYLGFGVDLAEYNGDDSWELPLPGTFVIDRTMTVRLSFVDADYTRRLEPAAILDTLRAMRDVGGIPEGHHHHHH”, the “soluble on expression in E. coli” value is reported as “not soluble”.
In the case of “MSLVIITDATEADLDQIFQIETESFEDPYPYSLLRAYLFLANKLYLVAKQREKVVGYIIGIIQYGYRGHIVSIAVEPIYRKQGIGAKLLNEIEERFKLNGARYSYLEVNTNNLSAISFYRANGYLIMYVRKNYYGRDKHAFVMVKNLYEGHHHHHH”, the “soluble on expression in E. coli” value is reported as “soluble”.
In the case of “MSLVIRRLYQFCASHVVRNCSSLKCAQNIHGHNYEVEVFIETNRLDNANMALDFGLMQQEMQVFIESFDHAHHFWDKESLEFQRFIENHCVRYVKCSFNLSAESYALMFLYYLTKILQKSVFSNDEGELKVSSVRVHETKNGYAESFLKDEGHHHHHH”, the “soluble on expression in E. coli” value is reported as “soluble”.
For “MSLVKISNVRVRPLVLPLKQPYHWSYGIRESFAVNLIEIEADDGTVGIGECTVAPDQTGTAAILYRLAKHLVGHSPHDVAPLIARIFHQEYLGHGANIMRAANQIFSGIDMAMWDLQGKLAGLPVHQLLGGAHRKAVGYFYFLQGETAEELARDAAVGHAQGERVFYLKVGRGEKLDLEITAAVRGEIGDARLRLDANEGWSVHDAINMCRKLEKYDIEFIEQPTVSWSIPAMAHVREKVGIPIVADQAAFTLYDVYEICRQRAADMICIGPREIGGIQPMMKAAAVAEAAGLKICIHSSFTTGITTCAEHHIGLAIPNLDDGNQIMWQLVQEDIVSSPDLTPKNGWLDAFRKPGLGFQLAEDLVAEGEGRYAASREGHHHHHH”, the “soluble on expression in E. coli” value was “soluble”.
